Measurements taken from patent US20210139588A1 (STCUBE, published 2021).

B2: 4NQ mutant (unglycosylated) PD-1 expressed on 293T cells (PD-1-Flag) (receptor)
chain: LDSPDRPWNPPTFSPALLVVTEGDQATFTCSFSQTSESFVLNWYRMSPSQQTDKLAAFPEDRSQPGQDCRFRVTQLPNGRDFHMSVVRARRQDSGTYLCGAISLAPKAQIKESLRAELRVTERRAEVPTAHPSPSPRPAGQFQTLVVGVVGGLLGSLVLLVWVLAVICSRAARGTIGARRTGQPLKEDPSAVPVFSVDYGELDFQWREKTPEPPVPCVPEQTEYATIVFPSGMGTSSPARRGSADGPRSAQPLRPEDGHCSWPL
notes: also called PD-1 4NQ; not shown: Flag tag

How the values were obtained:
[1] = target: T1, wild type (glycosylated) PD-1 expressed on 293T cells (PD-1-Flag) (human, UniProt Q15116 25-288, N-linked glycosylation at N49, N58, N74 and N116); test: flow cytometry on 293T cells expressing wild type PD-1 against 293T cells expressing 4NQ PD-1, labeled secondary antibody
T1 construct: also called PD-1 WT; not shown: Flag tag
Experimental: (§1) Flow Cytometry. Cells overexpressing PD-1 wild type and mutant proteins or control vector were isolated by trypsinization and collected in Cell Staining Buffer (CSB) (BioLegend, San Diego, Calif., US) at 2×10⁶ cells/mL. 50 μL of cells were aliquoted to a 96 well round-bottom plate, to which 50 μL of 20 μg/mL primary antibody was added, followed by gentle mixing and 1 h incubation at 4° C. in the dark. Cells were washed with CSB, incubated with anti-mouse IgG-PE conjugate (10 μg/mL) with DAPI (1:100) 30 minutes 21° C. in the dark. Cells were washed and data acquired using Guava EasyCyte HT (Millipore Darmstadt, Del.) or FACS Celesta (Becton Dickinson, Franklin Lakes, N.J., US) flow cytometer.

[2] = target: T2, N49Q mutant PD-1-Fc protein (Homo sapiens (Human), UniProt Q15116 25-170); test: Western blot of PD-1-Fc proteins
T2 construct: also called PD-1 with a mutant glycosylation site at position 49; not shown: Fc portion

[3] = target: T3, N74Q mutant PD-1-Fc protein (Homo sapiens (Human), UniProt Q15116 25-170); test: Western blot of PD-1-Fc proteins
T3 construct: also called PD-1 with a mutant glycosylation site at position 74; not shown: Fc portion

PD-1-His = target: T4, PD-1-His (Homo sapiens (Human), UniProt Q15116 25-170, limits assumed); test: BIACORE (SPR), antigen PD-1-His
T4 construct: also called glycosylated PD-1 (BIACORE antigen); not shown: His tag

[4] = target: T5, N49Q mutant PD-1 expressed on 293T cells (PD-1-Flag) (human, UniProt Q15116 25-288); test: flow cytometry on 293T cells expressing N49Q PD-1, anti-mouse IgG-PE secondary
T5 construct: also called N49Q PD-1; not shown: Flag tag
Experimental: as §1

[5] = target: T1, wild type (glycosylated) PD-1 expressed …; test: flow cytometry on 293T cells expressing the PD-1 form, labeled secondary antibody
Experimental: as §1

[6] = target: T6, N74Q mutant PD-1 expressed on 293T cells (PD-1-Flag) (human, UniProt Q15116 25-288); test: as above
T6 construct: also called N74Q PD-1; not shown: Flag tag
Experimental: as §1

[7] = target: T7, N116Q mutant PD-1 expressed on 293T cells (PD-1-Flag) (human, UniProt Q15116 25-288); test: as above
T7 construct: also called N116Q PD-1; not shown: Flag tag
Experimental: as §1

[8] = target: T5, N49Q mutant PD-1 expressed on 293T …; test: as above
Experimental: as §1

[9] = target: B2; test: as above
Experimental: as §1

[10] = target: T8, N58Q mutant PD-1 expressed on 293T cells (PD-1-Flag) (human, UniProt Q15116 25-288); test: as above
T8 construct: also called N58Q PD-1; not shown: Flag tag
Experimental: as §1

[11] = target: B2; test: flow cytometry on 293T cells expressing 4NQ PD-1, anti-mouse IgG-PE secondary
Experimental: as §1

[12] = target: T6, N74Q mutant PD-1 expressed on 293T …; test: flow cytometry on 293T cells expressing the PD-1 variant, anti-mouse IgG-PE secondary, DAPI-negative population gated; percent of cells right of the dashed gate; 293T blank cells give 2.71
Experimental: as §1

[13] = target: T7, N116Q mutant PD-1 expressed on 293T …; test: as above
Experimental: as §1

[14] = target: T5, N49Q mutant PD-1 expressed on 293T …; test: as above
Experimental: as §1

[15] = target: B2; test: as above
Experimental: as §1

[16] = target: T7, N116Q mutant PD-1 expressed on 293T …; test: flow cytometry on 293T cells expressing N116Q PD-1, anti-mouse IgG-PE secondary
Experimental: as §1

[17] = target: T1, wild type (glycosylated) PD-1 expressed …; test: flow cytometry on 293T cells; reference: 4NQ PD-1 cells
Experimental: as §1

[18] = target: T1, wild type (glycosylated) PD-1 expressed …; test: inhibition of PD-L1-Fc binding to 293T cells overexpressing PD-1, IncuCyte fluorescence imaging
Experimental: Green fluorescence was measured every 2 hours by IncuCyte™ Zoom device and quantitated by IncuCyte™ Zoom Software (Essen BioScience, Ann Arbor, Mich., USA).

[19] = target: T6, N74Q mutant PD-1 expressed on 293T …; test: flow cytometry on 293T cells expressing N74Q PD-1, anti-mouse IgG-PE secondary
Experimental: as §1

[20] = target: T9, recombinant human PD-L1-Fc chimera protein (R&D Systems) (human, UniProt Q9NZQ7 19-239); test: live-cell imaging (IncuCyte) of labeled PD-L1-Fc on 293T cells
T9 construct: Bought reagent; Used fluorescently labeled or detected with anti-human-Fc Alexa Fluor 488; also called PD-L1-Fc fusion protein; not shown: Fc portion, detected with anti-human IgG
T9 sequence (Q9NZQ7 19-239 limits assumed, change not shown): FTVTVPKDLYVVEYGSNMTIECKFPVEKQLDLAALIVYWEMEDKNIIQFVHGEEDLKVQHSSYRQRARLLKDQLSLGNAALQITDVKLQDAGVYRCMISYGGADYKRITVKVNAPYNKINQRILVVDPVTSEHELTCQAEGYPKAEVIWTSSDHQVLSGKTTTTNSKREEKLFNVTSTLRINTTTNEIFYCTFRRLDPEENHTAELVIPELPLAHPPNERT
Description: PD-L1 and PD-1 (PD-L1/PD-1) interaction assay. […] The secondary antibodies used were anti-human Alexa Fluor 488 dye conjugate (Life Technologies). The fluorescence intensity of Alexa Fluor 488 dye was then monitored using a real-time microscope IncuCyte (Essen BioScience, Ann Arbor, Mich., USA).
Ligand and receptor binding was quantified by IncuCyte™Zoom every hour, according to the manufacturer's instructions.

B1: anti-glycPD-1 monoclonal antibody STM432 (antibody, V domains shown)
VH: EVMLVEPGGGLVKPGGSLKLSCAASGFTFSSYGMSWVRQTPEKRLEWVATISGGGANTYYPDTVKGRFTISRDNAKNTLYLQMNSLRSEDTALYYCARYGYDTVFAYWGQGTLVTVSA
VL: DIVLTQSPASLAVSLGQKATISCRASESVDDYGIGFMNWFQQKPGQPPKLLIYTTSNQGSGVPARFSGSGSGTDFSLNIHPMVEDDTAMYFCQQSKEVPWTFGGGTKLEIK
notes: Mouse monoclonal antibody from a hybridoma; also called MAb STM432
For B1, the “fold MFI against binding to the unglycosylated 4NQ mutant PD-1” value [1] was roughly 43 times, the binding result [2] was “no binding (tested: 0.5 µg protein on the blot)” and the binding result [3] was “no binding (tested: 0.5 µg protein on the blot)”. It also gave a Kd (PD-1-His) of 296 nM, a koff (PD-1-His) of 0.0053 s⁻¹ and a kon (PD-1-His) of 17900 M⁻¹ s⁻¹. For the same binder, the binding result [4] was “no binding”, the MFI [5] was 1140 MFI and the MFI [6] was 29 MFI. It also gave an MFI [7] of 31 MFI, an MFI [8] of 32 MFI and an MFI [9] of 26 MFI. For the same binder, the MFI [10] was 413 MFI, the binding result [11] was “no binding” and the “Unit (%) (cells in the positive gate)” value [12] was 7.71%. The “Unit (%) (cells in the positive gate)” value [13] was 4.12%, the “Unit (%) (cells in the positive gate)” value [14] was 4.6% and the “Unit (%) (cells in the positive gate)” value [15] was 1.82%. For the same binder, the binding result [16] was “no binding”, the “fold MFI on wild type PD-1 against unglycosylated 4NQ mutant PD-1” value [17] was roughly 43 fold and the EC50 [18] was 0.11 µg/mL. B1: no binding [19].

B2: no binding [20].
